Experimental data as given in patent EP3964526A1.

B1: 509-maxll (scFv, from another filing)
scFv: EIVMTQSPSTLSASVGDRVIITCQASQNIRIWLSWYQQKPGKAPKLLIYKASTLESGVPSRFSGSGSGTEFTLTISSLQPDDFATYYCQNNAHYSTNGGTFGQGTKLTVLGGGGGSGGGGSGGGGSGGGGSEVQLVESGGGLVQPGGSLRLSCTASGFSLSSYYMSWVRQAPGKGLEWVGILDYVGDTDYASWAKGRFTISKDASKNTVYLQMNSLRAEDTAVYYCARTDDSRGWGLNIWGQGTLVTVSS
B2: EP15_max (scFv, from another filing)
scFv: EIVMTQSPSTLSASVGDRVIITCQASENIYTSLAWYQQKPGKAPKLLIYSASTLASGVPSRFSGSGSGTEFTLTISSLQPDDFATYYCQQGFATSNVENPFGQGTKLTVLGGGGGSGGGGSGGGGSGGGGSEVQLVESGGGSVQPGGSLRLSCTVSGFSLSRYGVSWVRQAPGKGLEWVGAIGETGRAYYANWAKSRSTISRDTSKNTVYLQMNSLRAEDTATYYCARGEEFNNGWGAFNIWGQGTTVTVSS
B3: EP34_max (scFv, from another filing)
scFv: EIVMTQSPSTLSASLGDRVIITCQSSQSVYGNIWMAWYQQKSGKAPKLLIYQASKLASGVPSRFSGSGSGAEFSLTISSLQPDDFATYYCQGNFNTGDRYAFGQGTKLTVLGGGGGSGGGGSGGGGSGGGGSEVQLVESGGGLVQPGGSLRLSCTASGFTISRSYWICWVRQAPGKGLEWVACIYGDNDITPLYANWAKGRFPVSTDTSKNTVYLQMNSLRAEDTAVYYCARLGYADYAYDLWGQGTLVTVSS
B4: EP6_max (scFv, from another filing)
scFv: EIVMTQSPSTLSASVGDRVIITCQASESIYSGLAWYQQKPGKAPKLLIYQASTLASGVPSRFSGSGSGTDFTLAISSLQPDDFATYYCQQGFGTSNVENPFGQGTKLTVLGGGGGSGGGGSGGGGSGGGGSEVQLVESGGGLVQPGGSLRLSCTVSGFSLSRYGVSWVRQAPGKGLEWVGTIGEAGRAYYANWARSRSTISRDTSKNTVYLQMNSLRAEDTAVYYCARGEVFNNGWGAFNIWGQGTLVTVSS
B5: EP43_max (scFv, from another filing)
scFv: EIVMTQSPSTLSASVGDRVIIKCQASQSISDWLAWYQQKPGKAPKLLIYGASRLASGFPSRFSGSGSGAEFTLTISGLEPADFATYYCQQGWSDSYVDNLFGQGTKLTVLGGGGGSGGGGSGGGGSGGGGSEVQLVESGGGLVQPGGSLRLSCTVSGFSLSSGAMSWVRQAPGKGLEWVGVIISSGATYYASWAKGRFTISKDTSKNTVYLQMNSLRAEDTAVYYCARGGPDDSNSMGTFDPWGQGTLVTVSS
B6: EP35_max (scFv, from another filing)
scFv: EIVMTQSPSTLSASVGDRVIITCQASQSISNLLAWYQQKPGKAPKLLIVAASKLASGVPSRFSGSGSGTEFTLTISSLQPDDFATYYCQQGWSHTNVDNTFGQGTKLTVLGGGGGSGGGGSGGGGSGGGGSEVQLVESGGGSVQPGGSLRLSCTASGFSFSVGYWICWVRQAPGKGLEWVACIDAGTSGGTYYATWAKGRFTISKDTSKNTVYLQMNSLRAEDTATYYCARGVSSNGYYFKLWGQGTTVTVSS

Tests used:
[1] = molecular target: VEGF (as used in the VEGFR competition ELISA); assay: competition ELISA against hVEGR1, EC50 ratio to reference Luc
Chain of VEGF (as used in the VEGFR competition ELISA) (P15692 whole entry): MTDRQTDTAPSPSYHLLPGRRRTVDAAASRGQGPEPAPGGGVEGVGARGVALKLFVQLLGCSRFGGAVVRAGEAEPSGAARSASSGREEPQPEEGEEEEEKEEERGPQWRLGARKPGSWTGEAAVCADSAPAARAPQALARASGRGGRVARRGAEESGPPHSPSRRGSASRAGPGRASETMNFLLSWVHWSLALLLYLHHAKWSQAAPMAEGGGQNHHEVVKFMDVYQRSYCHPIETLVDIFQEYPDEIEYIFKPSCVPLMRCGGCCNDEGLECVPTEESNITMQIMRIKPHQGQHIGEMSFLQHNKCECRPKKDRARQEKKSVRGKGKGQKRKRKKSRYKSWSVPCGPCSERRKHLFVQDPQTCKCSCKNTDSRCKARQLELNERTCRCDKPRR

[2] = molecular target: recombinant human VEGF165 (PeproTech EC Ltd.) (human) (UniProt P15692); assay: SPR BIAcore T100, hVEGF165 amine-coupled on CM4 chip, scFv as analyte
Chain of recombinant human VEGF165 (PeproTech EC Ltd.) (human) (P15692 other isoform, or with tags, fused parts or gaps limits assumed): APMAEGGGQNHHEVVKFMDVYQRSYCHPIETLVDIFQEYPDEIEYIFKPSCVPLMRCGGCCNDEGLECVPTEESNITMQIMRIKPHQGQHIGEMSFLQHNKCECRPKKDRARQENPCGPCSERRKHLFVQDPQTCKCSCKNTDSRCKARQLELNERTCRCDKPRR

[3] = molecular target: recombinant human TNF (hTNF) (human) (UniProt P01375); assay: cell-based or functional assay; settings: scale: ratio EC50 ESBA105 / EC50 test, in mass units [ng/ml]
Chain of recombinant human TNF (hTNF) (human) (P01375 77-233 limits assumed): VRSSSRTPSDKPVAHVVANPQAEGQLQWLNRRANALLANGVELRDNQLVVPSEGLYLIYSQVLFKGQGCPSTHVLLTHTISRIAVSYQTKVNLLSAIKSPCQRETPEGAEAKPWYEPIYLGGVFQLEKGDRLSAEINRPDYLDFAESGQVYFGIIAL

Binder | L929* [EC50-E105 / EC50-X] [3] | further results
B1 |  | Rel. activity hVEGR1 comp. ELISA (EC50Luc[nM]/EC50test[nM]) [1]: 0.09; Kd [2]: 3.37 nM; koff [2]: 0.00282 s⁻¹; kon [2]: 838000 M⁻¹ s⁻¹
B2 | 0.39 | 
B3 | 10.5 | 
B4 | 1.1 | 
B5 | 6.4 | 
B6 | 5.2 | 
